Measurements from US20210403584A1 (ARMAGEN, published 2021).
Values belong to the molecule of their own block, whether it stands above or below them.

What was measured:
[1] = target: human insulin receptor extracellular domain (HIR ECD) (human) (UniProt P06213); assay: ELISA, HIR ECD plated; against the HIR Ab
[2] = target: T1, human insulin receptor extracellular domain (HIR ECD) (human, UniProt P06213 28-956, limits assumed); assay: ELISA, recombinant HIR ECD plated, secondary antibody and alkaline phosphatase detection
T1 construct: extracellular domain
Experimental: The potency of the CHO-derived fusion protein was assessed with the HIR ECD binding ELISA. The affinity of the fusion protein for the HIR extracellular domain (ECD) was determined with an ELISA. Recombinant HIR ECD was plated on Nunc-Maxisorb 96 well dishes and the binding of the HIR Ab, or the HIR Ab-GLB1 fusion protein, to the HIR ECD was detected with a secondary antibody, followed by binding with an alkaline phosphatase detector reagent. […] The MW of the HIR Ab is 150 kDa, and the MW of the HIR Ab-fusion protein is 334 kDa.

- binding activity lost [1]: > 95%
Molecule: GUSB-HIR Ab fusion protein (GUSB fused to the amino terminus of the HIR Ab heavy chain) (from UniProt P08236 23-633)

- EC50 [2]: 0.037 µg/mL
B1: chimeric HIR Ab (human insulin receptor antibody) (antibody, human IgG1, kappa, V domains shown)
VH: QVQLQQSGPELVKPGALVKISCKASGYTFTNYDIHWVKQRPGQGLEWIGWIYPGDGSTKYNEKFKGKATLTADKSSSTAYMHLSSLTSEKSAVYFCAREWAYWGQGTLVTVSA
VL: DIQMTQSPSSLSASLGERVSLTCRASQDIGGNLYWLQQGPDGTIKRLIYATSSLDSGVPKRFSGSRSGSDYSLTISSLESEDFVDYYCLQYSSSPWTFGGGTKMEIKR
notes: Chimeric antibody against the extracellular domain of the human insulin receptor; human IgG1/kappa constant regions; also called HIRMAb; HIR MAb
